The target of assay [1] is T1, recombinant rat NNOS (Rattus norvegicus, UniProt P29476).
T1 construct: made in house; host or cells: HEK293 cells
The assay is described as follows: NOS activity, kinetic 96-well microtiter plate assay, NADPH consumption. Type of assay: biochemical. The settings on record: peptide 100 μg/ml; mean ± SEM, triplicate. How it is done:
(§1) NOS activity measurements were performed using recombinant rat NNOS (purified from overexpressing HEK293 cells), recombinant bovine ENOS (purified from overexpressing E. coli) or native INOS (from immunostimulant-activated rat aortic smooth muscle cells). Activity was determined with 1-20 pmole of NOS using a kinetic 96-well microtiter plate assay based on the kinetics of NADPH consumption (NNOS and ENOS) or Fe^2+-myoglobin oxidation. Radioligand binding was performed after incubation of 1-2 pmole of NOS for 15 minutes at 23° C. with either Bolton-Hunter labelled [125I]-calmodulin (1 nM) or [3H]-N-nitro-L-arginine (200 pM) and the indicated peptides. Values are means ±SEM of triplicate determinations.

Assay [2] deals with T2, recombinant bovine ENOS (Bos taurus, UniProt P29473).
T2 construct: made in house; host or cells: E. coli
T2 sequence (P29473 1-1205): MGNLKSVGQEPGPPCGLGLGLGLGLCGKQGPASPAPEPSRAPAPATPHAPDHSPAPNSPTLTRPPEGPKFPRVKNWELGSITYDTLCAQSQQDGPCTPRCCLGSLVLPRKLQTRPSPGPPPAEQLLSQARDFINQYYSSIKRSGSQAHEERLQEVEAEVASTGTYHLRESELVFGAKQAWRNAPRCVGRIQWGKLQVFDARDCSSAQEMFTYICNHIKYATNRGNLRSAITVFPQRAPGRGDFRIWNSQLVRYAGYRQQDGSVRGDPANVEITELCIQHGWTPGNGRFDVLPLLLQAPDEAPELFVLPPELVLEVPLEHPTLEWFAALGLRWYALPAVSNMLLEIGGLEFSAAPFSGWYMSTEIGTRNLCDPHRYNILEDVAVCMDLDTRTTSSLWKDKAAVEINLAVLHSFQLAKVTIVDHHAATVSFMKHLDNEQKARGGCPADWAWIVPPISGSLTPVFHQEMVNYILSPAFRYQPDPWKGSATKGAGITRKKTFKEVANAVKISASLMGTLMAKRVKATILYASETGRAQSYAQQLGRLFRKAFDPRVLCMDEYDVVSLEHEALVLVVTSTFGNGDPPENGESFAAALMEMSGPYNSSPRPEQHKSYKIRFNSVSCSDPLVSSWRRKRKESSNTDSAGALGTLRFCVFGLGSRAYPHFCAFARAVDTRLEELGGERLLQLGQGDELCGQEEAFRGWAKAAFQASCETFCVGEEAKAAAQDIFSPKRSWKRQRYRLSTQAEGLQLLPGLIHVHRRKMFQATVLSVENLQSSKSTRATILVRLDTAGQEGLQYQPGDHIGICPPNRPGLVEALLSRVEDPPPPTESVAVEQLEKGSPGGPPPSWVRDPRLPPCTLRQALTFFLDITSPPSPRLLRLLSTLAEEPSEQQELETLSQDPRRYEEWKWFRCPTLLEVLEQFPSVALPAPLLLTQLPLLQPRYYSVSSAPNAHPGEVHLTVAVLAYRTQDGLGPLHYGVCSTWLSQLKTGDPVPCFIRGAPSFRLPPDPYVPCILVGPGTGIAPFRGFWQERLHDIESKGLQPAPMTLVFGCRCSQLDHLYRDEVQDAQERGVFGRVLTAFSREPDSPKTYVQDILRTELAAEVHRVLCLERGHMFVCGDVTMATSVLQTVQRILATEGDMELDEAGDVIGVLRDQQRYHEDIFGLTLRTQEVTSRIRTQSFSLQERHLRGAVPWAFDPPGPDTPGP
The assay is described as above. In kind it is biochemical. The settings on record: peptide 100 μg/ml; mean ± SEM, triplicate. How it is done: as §1

In assay [3] the target is T3, NNOS (Rattus norvegicus, UniProt P29476). In words: CAM binding: radiolabeled CAM trapped on a membrane by NNOS adhesion. As to conditions: no peptide: 774 ± 40. How it is done: (§2) JX series polypeptides are approximately 30-mers derived from ENOS and NNOS inhibitory polypeptides. B058 series are shorter (6-mers to 15-mers) peptides derived from flanking loops or from shorter segments of inhibitory polypeptides. CAM binding data represents counts from radiolabeled CAM trapped on a membrane by NNOS adhesion. INOS activity was assayed by measuring oxidation of ferrous myoglobin by product NO.

Assay [4] deals with NOS. In words: Radioligand binding of [125I]-calmodulin to NOS. On the set-up: scale not given here. As to conditions: peptide 100 μg/ml; ligand 1 nM, 15 minutes at 23° C.; mean ± SEM. How it is done: as §1
Assay [5] concerns the target T4, ENOS (Bos taurus, UniProt P29473).
T4 sequence (P29473 2-1205): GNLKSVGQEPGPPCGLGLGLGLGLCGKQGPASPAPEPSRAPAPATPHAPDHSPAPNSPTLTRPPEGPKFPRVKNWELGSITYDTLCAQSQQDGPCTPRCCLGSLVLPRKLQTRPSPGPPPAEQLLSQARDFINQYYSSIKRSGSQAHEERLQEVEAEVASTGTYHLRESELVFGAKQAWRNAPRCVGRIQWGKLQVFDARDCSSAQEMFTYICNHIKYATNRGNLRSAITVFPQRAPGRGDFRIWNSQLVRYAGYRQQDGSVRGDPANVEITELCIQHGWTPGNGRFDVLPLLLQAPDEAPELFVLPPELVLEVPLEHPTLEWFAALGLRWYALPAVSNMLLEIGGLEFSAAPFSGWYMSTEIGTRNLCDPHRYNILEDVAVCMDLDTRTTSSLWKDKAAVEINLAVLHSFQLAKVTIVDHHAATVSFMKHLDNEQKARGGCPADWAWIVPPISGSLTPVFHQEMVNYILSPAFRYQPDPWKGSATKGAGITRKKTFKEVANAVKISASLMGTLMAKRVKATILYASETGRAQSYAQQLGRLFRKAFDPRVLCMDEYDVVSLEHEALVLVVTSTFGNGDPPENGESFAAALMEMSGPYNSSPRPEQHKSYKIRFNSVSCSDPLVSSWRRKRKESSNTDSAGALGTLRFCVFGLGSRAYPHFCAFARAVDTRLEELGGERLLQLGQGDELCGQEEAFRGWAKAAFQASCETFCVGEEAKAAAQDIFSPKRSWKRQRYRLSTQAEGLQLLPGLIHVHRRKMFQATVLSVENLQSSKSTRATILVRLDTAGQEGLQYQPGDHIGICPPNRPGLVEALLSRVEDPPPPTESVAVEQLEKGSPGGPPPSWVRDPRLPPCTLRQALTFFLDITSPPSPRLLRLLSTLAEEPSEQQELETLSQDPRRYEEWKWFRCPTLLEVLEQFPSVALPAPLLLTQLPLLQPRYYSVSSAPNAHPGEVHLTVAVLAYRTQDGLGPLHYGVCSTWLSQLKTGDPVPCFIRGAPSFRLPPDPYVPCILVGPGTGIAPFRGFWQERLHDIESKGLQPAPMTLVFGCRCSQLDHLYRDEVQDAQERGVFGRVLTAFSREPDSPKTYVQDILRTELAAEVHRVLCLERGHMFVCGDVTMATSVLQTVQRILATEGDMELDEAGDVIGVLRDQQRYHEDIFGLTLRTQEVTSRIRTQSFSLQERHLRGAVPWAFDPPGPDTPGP
In words: Effects on calmodulin binding (Example 3), ENOS. From the text: (§3) In addition to the inhibition of enzyme activity, it is possible to modulate CAM binding to NOS with synthetic homologs of the control site elements. The relationship between enzyme inhibition and CAM binding in the presence of control site elements can be complex. In other systems, antibodies to inhibitory elements sometimes induce partial CAM independent activation, while preventing CAM dependent activation. It is important to remember that CAM binding is only a means to displace the inhibitor.
(§4) While a number of the polypeptides could modulate CAM binding, the series containing the RRKRK (SEQ ID NO: 10) motif was the most instructive. […] CAM binding was decreased almost to background levels, with effects seen at the 10 uM level.

For assay [6], the system named is NOS. The assay is described as follows: Radioligand binding of [3H]-N-nitro-L-arginine to NOS. As to conditions: peptide 100 μg/ml; ligand 200 pM, 15 minutes at 23° C.; mean ± SEM. On the set-up: scale not given here. How it is done:
as §1

Assay [7] addresses INOS (Rattus norvegicus, UniProt Q06518). The assay is described as follows: INOS activity by oxidation of ferrous myoglobin by product NO. Type of assay: biochemical. On the set-up: unit not given here. As to conditions: peptide 0.1 mg/ml; no peptide: 14.9 ± .56. How it is done:
as §2

Assay [8] has as its target T5, native INOS (from immunostimulant-activated rat aortic smooth muscle cells) (Rattus norvegicus, UniProt Q06518).
T5 construct: endogenous in cells
The assay is described as follows: NOS activity, kinetic 96-well microtiter plate assay, Fe2+-myoglobin oxidation. In kind it is biochemical. As to conditions: peptide 100 μg/ml; mean ± SEM, triplicate. How it is done:
as §1

In assay [9] the target is T3, NNOS. The assay is described as follows: Effects on calmodulin binding (Example 3), NNOS.
Description: as §3, §4

T3 sequence (P29476 whole entry): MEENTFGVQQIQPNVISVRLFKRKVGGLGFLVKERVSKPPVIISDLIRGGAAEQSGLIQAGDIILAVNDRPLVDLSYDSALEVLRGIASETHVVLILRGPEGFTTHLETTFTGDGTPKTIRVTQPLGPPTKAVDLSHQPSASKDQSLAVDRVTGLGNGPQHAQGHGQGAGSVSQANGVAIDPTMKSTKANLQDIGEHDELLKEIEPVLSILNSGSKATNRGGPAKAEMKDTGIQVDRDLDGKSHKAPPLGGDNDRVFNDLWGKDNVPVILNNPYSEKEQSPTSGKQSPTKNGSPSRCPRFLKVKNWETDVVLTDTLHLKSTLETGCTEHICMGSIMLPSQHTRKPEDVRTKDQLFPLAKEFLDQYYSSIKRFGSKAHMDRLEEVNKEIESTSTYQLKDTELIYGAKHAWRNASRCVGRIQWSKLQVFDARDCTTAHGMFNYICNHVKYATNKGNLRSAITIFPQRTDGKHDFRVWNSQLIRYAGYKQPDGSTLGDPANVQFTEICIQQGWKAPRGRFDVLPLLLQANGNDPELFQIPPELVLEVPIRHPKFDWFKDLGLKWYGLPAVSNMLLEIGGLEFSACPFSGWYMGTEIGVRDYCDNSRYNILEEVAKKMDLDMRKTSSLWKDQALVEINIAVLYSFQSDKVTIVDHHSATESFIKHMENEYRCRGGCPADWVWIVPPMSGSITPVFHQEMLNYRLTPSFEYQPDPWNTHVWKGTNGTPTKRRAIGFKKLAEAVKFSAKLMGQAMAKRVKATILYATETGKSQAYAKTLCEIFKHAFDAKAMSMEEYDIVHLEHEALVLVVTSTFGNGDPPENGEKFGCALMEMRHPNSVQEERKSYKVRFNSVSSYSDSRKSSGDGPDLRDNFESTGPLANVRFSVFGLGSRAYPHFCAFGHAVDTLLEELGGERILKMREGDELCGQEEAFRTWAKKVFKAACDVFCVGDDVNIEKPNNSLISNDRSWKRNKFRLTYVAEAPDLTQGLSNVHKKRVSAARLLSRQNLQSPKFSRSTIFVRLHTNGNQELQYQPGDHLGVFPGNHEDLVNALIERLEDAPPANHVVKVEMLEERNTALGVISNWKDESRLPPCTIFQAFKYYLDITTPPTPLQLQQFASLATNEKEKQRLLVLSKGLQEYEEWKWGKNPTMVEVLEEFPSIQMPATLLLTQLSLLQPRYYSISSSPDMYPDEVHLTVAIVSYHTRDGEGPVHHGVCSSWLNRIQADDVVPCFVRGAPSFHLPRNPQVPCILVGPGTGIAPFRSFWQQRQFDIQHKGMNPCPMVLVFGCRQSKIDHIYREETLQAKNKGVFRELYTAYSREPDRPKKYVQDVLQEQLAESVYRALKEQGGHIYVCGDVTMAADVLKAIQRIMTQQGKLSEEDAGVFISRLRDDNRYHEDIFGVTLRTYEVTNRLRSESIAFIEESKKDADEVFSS
T1 sequence (P29476 whole entry): as above

Turning to “SSWRRKRKESS [BO58-08, 13; b114 cites it by residues 4-11]”, the “NOS Activity (% of control) NNOS” value in assay [1] is reported as 19.1 ± 0.9 % of control. In addition, in [2], the “NOS Activity (% of control) ENOS” value was 27.7 ± 2.0 % of control. Besides, the “NNOS CAM Binding” value in [3] was 152 ± 26 counts. In addition, the “Ligand binding to NOS [125I]-CAM” value in assay [4] was 0.0 ± 0.5. Also, the “effect on CAM binding to ENOS (in words)” value in assay [5] was “potent CAM antagonist”. Also, the “level at which effects on CAM binding are seen” value in assay [5] (ENOS) and in assay [9] (NNOS) was 10 µM throughout. Also, in [6], the “Ligand binding to NOS [3H]-NHA” value is 120.7 ± 12.7. For the same sequence, the “INOS Activity 0.1 mg/ml” value in [7] is recorded as 14.5 ± .70. Moreover, in assay [8], the “NOS Activity (% of control) INOS” value is recorded as 92.1 ± 1.3 % of control. In addition, in [9], the “effect on CAM binding to NNOS (in words)” value is “potent CAM antagonist”.

Source of the values: US6750197B1, “Activators of endothelial nitric oxide synthase” (Rensselaer Polytechnic Institute, priority 1996, dated 2004).
